According to the supplement of paper PMC11316812:
± gives the standard deviation of the averaged measurements.

Tests used:
hTERT-HMEC = experiment: percentage of EdU-negative (G0-arrested) nuclei per well, 72 h; higher = more G0 arrest; settings: reference: sequence is the full UniProt precursor, the tested protein was the secreted form or ectodomain
MCF7 = experiment: as above; settings: reference: sequence is the full UniProt precursor, the tested protein was the secreted form or ectodomain
[1] = protein concentration 0.02103 µM
[2] = protein concentration 0.2103 µM
[3] = protein concentration 0.0257143 µM
[4] = protein concentration 0.257143 µM
[5] = protein concentration 0.0225 µM
[6] = protein concentration 0.03125 µM
[7] = protein concentration 0.3125 µM
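Further: secreted proteins added to cultured cells, EdU pulse at the end, nuclei found by Hoechst imaging, EdU status from nuclear versus surrounding ring intensity ratio, PBS as neutral control.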

Sequence: MRVAGAAKLVVAVAVFLLTFYVISQVFEIKMDASLGNLFARSALDTAARSTKPPRYKCGISKACPEKHFAFKMASGAANVVGPKICLEDNVLMSGVKNNVGRGINVALANGKTGEVLDTKYFDMWGGDVAPFIEFLKAIQDGTIVLMGTYDDGATKLNDEARRLIADLGSTSITNLGFRDNWVFCGGKGIKTKSPFEQHIKNNKDTNKYEGWPEVVEMEGCIPQKQD
- percentage of EdU-negative (hTERT-HMEC; [1]): 4.78 ± 1.5%
- percentage of EdU-negative (hTERT-HMEC; [2]): 5.17 ± 1.7%
- percentage of EdU-negative (MCF7; [1]): 25.3 ± 0.58%
- percentage of EdU-negative (MCF7; [2]): 24.9 ± 1.8%

Sequence: MQKVTLGLLVFLAGFPVLDANDLEDKNSPFYYDWHSLQVGGLICAGVLCAMGIIIVMSAKCKCKFGQKSGHHPGETPPLITPGSAQS
- percentage of EdU-negative (hTERT-HMEC; [3]): 4.87 ± 0.45%
- percentage of EdU-negative (hTERT-HMEC; [4]): 4.969 ± 0.0066%
- percentage of EdU-negative (MCF7; [3]): 26.4 ± 0.91%
- percentage of EdU-negative (MCF7; [4]): 24.9 ± 1%

Sequence: MWNMLIVAMCLALLGCLQAQELQGHVSIILLGATGDLAKKYLWQGLFQLYLDEAGRGHSFSFHGAALTAPKQGQELMAKALESLSCPKDMAPSHCAEHKDQFLQLSQYRQLKTAEDYQALNKDIEAQLQHAGLREAGRIFYFSVPPFAYEDIARNINSSCRPGPGAWLRVVLEKPFGHDHFSAQQLATELGTFFQEEEMYRVDHYLGKQAVAQILPFRDQNRKALDGLWNRHHVERVEIIMKETVDAEGRTSFYEEYGVIRDVLQNHLTEVLTLVAMELPHNVSSAEAVLRHKLQVFQALRGLQRGSAVVGQYQSYSEQVRRELQKPDSFHSLTPTFAAVLVHIDNLRWEGVPFILMSGKALDERVGYARILFKNQACCVQSEKHWAAAQSQCLPRQLVFHIGHGDLGSPAVLVSRNLFRPSLPSSWKEMEGPPGLRLFGSPLSDYYAYSPVRERDAHSVLLSHIFHGRKNFFITTENLLASWNFWTPLLESLAHKAPRLYPGGAENGRLLDFEFSSGRLFFSQQQPEQLVPGPGPAPMPSDFQVLRAKYRESPLVSAWSEELISKLANDIEATAVRAVRRFGQFHLALSGGSSPVALFQQLATAHYGFPWAHTHLWLVDERCVPLSDPESNFQGLQAHLLQHVRIPYYNIHPMPVHLQQRLCAEEDQGAQIYAREISALVANSSFDLVLLGMGADGHTASLFPQSPTGLDGEQLVVLTTSPSQPHRRMSLSLPLINRAKKVAVLVMGRMKREITTLVSRVGHEPKKWPISGVLPHSGQLVWYMDYDAFLG
- percentage of EdU-negative (hTERT-HMEC; [5]): 5.45 ± 1.2%
- percentage of EdU-negative (hTERT-HMEC; protein concentration 0.225 µM): 7.4 ± 1.2%
- percentage of EdU-negative (MCF7; [5]): 23.3 ± 2.2%
- percentage of EdU-negative (MCF7; protein concentration 0.225 µM): 25.2 ± 1.6%

Sequence: MARARGSPCPPLPPGRMSWPHGALLFLWLFSPPLGAGGGGVAVTSAAGGGSPPATSCPVACSCSNQASRVICTRRDLAEVPASIPVNTRYLNLQENGIQVIRTDTFKHLRHLEILQLSKNLVRKIEVGAFNGLPSLNTLELFDNRLTTVPTQAFEYLSKLRELWLRNNPIESIPSYAFNRVPSLRRLDLGELKRLEYISEAAFEGLVNLRYLNLGMCNLKDIPNLTALVRLEELELSGNRLDLIRPGSFQGLTSLRKLWLMHAQVATIERNAFDDLKSLEELNLSHNNLMSLPHDLFTPLHRLERVHLNHNPWHCNCDVLWLSWWLKETVPSNTTCCARCHAPAGLKGRYIGELDQSHFTCYAPVIVEPPTDLNVTEGMAAELKCRTGTSMTSVNWLTPNGTLMTHGSYRVRISVLHDGTLNFTNVTVQDTGQYTCMVTNSAGNTTASATLNVSAVDPVAAGGTGSGGGGPGGSGGVGGGSGGYTYFTTVTVETLETQPGEEALQPRGTEKEPPGPTTDGVWGGGRPGDAAGPASSSTTAPAPRSSRPTEKAFTVPITDVTENALKDLDDVMKTTKIIIGCFVAITFMAAVMLVAFYKLRKQHQLHKHHGPTRTVEIINVEDELPAASAVSVAAAAAVASGGGVGGDSHLALPALERDHLNHHHYVAAAFKAHYSSNPSGGGCGGKGPPGLNSIHEPLLFKSGSKENVQETQI [Q9NT99]
- percentage of EdU-negative (hTERT-HMEC; [6]): 5.15 ± 0.48%
- percentage of EdU-negative (hTERT-HMEC; [7]): 6.95 ± 0.74%
- percentage of EdU-negative (MCF7; [6]): 22.3 ± 1.6%
- percentage of EdU-negative (MCF7; [7]): 26.4 ± 1.3%

Sequence: MAGSPTCLTLIYILWQLTGSAASGPVKELVGSVGGAVTFPLKSKVKQVDSIVWTFNTTPLVTIQPEGGTIIVTQNRNRERVDFPDGGYSLKLSKLKKNDSGIYYVGIYSSSLQQPSTQEYVLHVYEHLSKPKVTMGLQSNKNGTCVTNLTCCMEHGEEDVIYTWKALGQAANESHNGSILPISWRWGESDMTFICVARNPVSRNFSSPILARKLCEGAADDPDSSMVLLCLLLVPLLLSLFVLGLFLWFLKRERQEEYIEEKKRVDICRETPNICPHSGENTEYDTIPHTNRTILKEDPANTVYSTVEIPKKMENPHSLLTMPDTPRLFAYENVI [Q9NQ25]
- percentage of EdU-negative (hTERT-HMEC; [5]): 5 ± 0.45%
- percentage of EdU-negative (hTERT-HMEC; protein concentration 0.225 µM): 6.3 ± 0.74%
- percentage of EdU-negative (MCF7; [5]): 27.18 ± 0.048%
- percentage of EdU-negative (MCF7; protein concentration 0.225 µM): 27.7 ± 1.3%

Sequence: MRLGSPGLLFLLFSSLRADTQEKEVRAMVGSDVELSCACPEGSRFDLNDVYVYWQTSESKTVVTYHIPQNSSLENVDSRYRNRALMSPAGMLRGDFSLRLFNVTPQDEQKFHCLVLSQSLGFQEVLSVEVTLHVAANFSVPVVSAPHSPSQDELTFTCTSINGYPRPNVYWINKTDNSLLDQALQNDTVFLNMRGLYDVVSVLRIARTPSVNIGCCIENVLLQQNLTVGSQTGNDIGERDKITENPVSTGEKNAATWSILAVLCLLVVVAVAIGWVCRDRCLQHSYAGAWAVSPETELTGHV
- percentage of EdU-negative (hTERT-HMEC; [5]): 5.11 ± 0.35%
- percentage of EdU-negative (hTERT-HMEC; protein concentration 0.225 µM): 6.86 ± 0.54%
- percentage of EdU-negative (MCF7; [5]): 27.1 ± 2.8%
- percentage of EdU-negative (MCF7; protein concentration 0.225 µM): 25.8 ± 2.6%

Sequence: MTDRQTDTAPSPSYHLLPGRRRTVDAAASRGQGPEPAPGGGVEGVGARGVALKLFVQLLGCSRFGGAVVRAGEAEPSGAARSASSGREEPQPEEGEEEEEKEEERGPQWRLGARKPGSWTGEAAVCADSAPAARAPQALARASGRGGRVARRGAEESGPPHSPSRRGSASRAGPGRASETMNFLLSWVHWSLALLLYLHHAKWSQAAPMAEGGGQNHHEVVKFMDVYQRSYCHPIETLVDIFQEYPDEIEYIFKPSCVPLMRCGGCCNDEGLECVPTEESNITMQIMRIKPHQGQHIGEMSFLQHNKCECRPKKDRARQEKKSVRGKGKGQKRKRKKSRYKSWSVPCGPCSERRKHLFVQDPQTCKCSCKNTDSRCKARQLELNERTCRCDKPRR
- percentage of EdU-negative (hTERT-HMEC; [6]): 5.12 ± 1.2%
- percentage of EdU-negative (hTERT-HMEC; [7]): 5.48 ± 0.89%
- percentage of EdU-negative (MCF7; [6]): 27 ± 1.3%
- percentage of EdU-negative (MCF7; [7]): 25.1 ± 0.32%
